The supplement of paper PMC10126150
± gives the standard deviation of the averaged measurements.

System: ATP
Experiment: switch fluorescence ratio, 500 uM ATP over buffer (Cy3 cluster intensity, sum of 5 cycles each) (fold (ratio)); higher = stronger signal-on switching upon ATP binding; sequences stand for … in TCGTCGGCAGCGTCAGATGTGTATAAGAGACAGTTTTTTTTTTTTTTTTTTTTTTTTT…TC
Conditions: aptamer strand: ATP DNA aptamer (quencher-CACCTGGGGGAGTATTGCGGAGGAAGG + anchor), 100 nM annealed; ATP concentration: 500 uM
Outline: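 Clusters with intensities outside 100-1000 RFU were excluded. The remaining Cy3-labelled switching-strand clusters on a modified Illumina MiSeq flow-cell had been annealed to 100 nM quencher-labelled ATP aptamer and imaged in selection buffer, then after 15 min with 500 uM ATP at 22 °C, for five cycles separated by NaOH stripping and re-annealing. The fluorescence ratio, averaged per switch-domain sequence, is each cluster's summed target-cycle Cy3 intensity over its summed buffer-cycle Cy3 intensity.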
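Also: ATP exposure 15 min at 22 °C before imaging.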

| Sequence | switch fluorescence ratio |
| --- | --- |
| TTTTTGAGGT | 1 ± 0.025 |
| TTTTTGAGTT | 0.977 ± 0.032 |
| TTTTTGCGAT | 0.9982 ± 0.0046 |
| TTTTTGCGTC | 1.03 ± 0.059 |
| TTTTTGGAAC | 1.01 ± 0.023 |
| TTTTTGGAGC | 1.01 ± 0.016 |
| TTTTTGGGGC | 1.03 ± 0.072 |
| TTTTTGGTGC | 1.04 ± 0.03 |
| TTTTTGTATG | 1.02 ± 0.034 |
| TTTTTGTCAT | 0.9912 ± 0.0094 |
| TTTTTGTCGG | 0.996 ± 0.026 |
| TTTTTGTGCT | 0.996 ± 0.032 |
| TTTTTGTTAA | 1.01 ± 0.013 |
| TTTTTGTTCC | 1.08 ± 0.1 |
| TTTTTGTTTG | 0.985 ± 0.029 |
| TTTTTTAAAC | 0.996 ± 0.013 |
| TTTTTTAAGT | 0.995 ± 0.024 |
| TTTTTTAATG | 1 ± 0.033 |
| TTTTTTATGA | 1.03 ± 0.027 |
| TTTTTTATTC | 1.15 ± 0.29 |
| TTTTTTATTT | 0.996 ± 0.025 |
| TTTTTTCAGG | 1.03 ± 0.027 |

| Sequence | switch fluorescence ratio |
| --- | --- |
| TTTTTTCCCG | 1.09 ± 0.11 |
| TTTTTTCCGG | 1.21 ± 0.17 |
| TTTTTTCCGT | 1.07 ± 0.16 |
| TTTTTTCCTG | 0.989 ± 0.011 |
| TTTTTTCGTT | 0.988 ± 0.022 |
| TTTTTTCTGG | 1 ± 0.091 |
| TTTTTTCTTC | 1.04 ± 0.011 |
| TTTTTTGCCG | 1.05 ± 0.14 |
| TTTTTTGCGA | 1.06 ± 0.079 |
| TTTTTTGCGC | 1.19 ± 0.29 |
| TTTTTTGCGT | 0.987 ± 0.047 |
| TTTTTTGCTC | 1.02 ± 0.033 |
| TTTTTTGGTA | 1.01 ± 0.036 |
| TTTTTTGGTC | 1.03 ± 0.037 |
| TTTTTTTACG | 1.06 ± 0.041 |
| TTTTTTTAGC | 1.03 ± 0.064 |
| TTTTTTTCAA | 1.01 ± 0.02 |
| TTTTTTTGAA | 0.979 ± 0.02 |
| TTTTTTTGAC | 1.01 ± 0.038 |
| TTTTTTTGGT | 0.996 ± 0.028 |
| TTTTTTTTCT | 1.02 ± 0.067 |
